{"source": "paper PMC3927142", "assay_in_all_cases": "flow cytometry on cells", "key": {"E6.2.10 (human)": {"molecular_target": "E6.2.10 (human) (UniProt P02751)"}, "EI2.4.6 (human)": {"molecular_target": "EI2.4.6 (human) (UniProt P02751)"}, "EI1.4.1 (human)": {"molecular_target": "EI1.4.1 (human) (UniProt P02751)"}}, "data": [{"substance": "EGFR mutant 404SG (from UniProt P00533 25-1210) (receptor)", "values": [{"measurement": "Kd", "setting": "E6.2.10 (human)", "value": 0.96, "unit": "nM"}, {"measurement": "Kd", "setting": "EI2.4.6 (human)", "value": 2.9, "unit": "nM"}, {"measurement": "Kd", "setting": "EI1.4.1 (human)", "value": 0.85, "unit": "nM"}]}]}
